Test results from US20190225650A1, “PEPTIDOMIMETIC MACROCYCLES AND USE THEREOF IN REGULATING HIF1ALPHA” (AILERON THERAPEUTICS, INC., priority 2013, published 2019).
Bridge positions count the residues as written; N and C are the ends. Square brackets hold non-standard residues; d marks the D form. Peptide text beside a SMILES is read from it. R8 = C=CCCCCCC[C@@](C)(N)C(=O)O; S5 = C=CCCC[C@](C)(N)C(=O)O; Nle = CCCC[C@H](N)C(=O)O

What was measured:
[1] = biological target: T1, GST-tagged p300 CH1 domain (AAs 302-423) / HIF1α (AAs 788-826) (Homo sapiens, UniProt Q09472); test: Biolayer interferometry competition for binding to p300 CH1 domain; settings: 300 nM p300 CH1
T1 construct: GST-tagged p300 CH1 domain (AAs 302-423)
Procedure: Biolayer inferometry (ForteBio, Menlo Park Calif.) was used to measure competition of SP-6 for HIF1α (AAs 788-826). Biotinylated HIF1α peptide was captured on […] biosensor tip. The association of 300 nM GST-tagged p300 CH1 domain (AAs 302-423) in the presence or absence of varying concentrations of SP-6 was measured for 240 s. Dissociation was monitored for a minimum of 200 s in the absence of free p300 or stapled peptide. Binding of p300 to biosensor immobilized HIF1α target was analyzed with instrument software and total response (R) was proportional to binding.
Inhibition of p300 binding was calculated as % inhibition=[…]. A concentration of 10 μM SP-6 blocked 99% of the total binding. The inhibition was dose-dependent, with 2 μM inhibiting 50% of p300/HIF1α binding.

[2] = biological target: T2, His6-tagged p300 (AA 323-423) (UniProt Q09472 323-423); test: TR-FRET HIF1a/p300 displacement; grade = IC50 >700 nM
T2 construct: range 323-423; also called p300-CH; not shown: His6 tag
Outline: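 Peptides competed with HIF1α C-terminal transactivation domain for His6-p300-CH (complex 300 nM final) during 1 h at RT in 20 mM HEPES pH 7.4, 150 mM NaCl, 7.5 mM CHAPS, 1 mM DTT. Anti-Flag-K (0.5 μM) and anti-His-D2 (4 nM) were added for 2 h. IC50 was derived from the TR-FRET ratio by one-site fit.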

[3] = biological target: T2, His6-tagged p300 (AA 323-423); test: TR-FRET HIF1a/p300 displacement; grade = IC50 <=200 nM
Procedure: The ability of peptides to displace HIF1α c-terminal trans-activation domain from p300-CH was measured by a TR FRET assay. […] The complex was diluted to 300 nM final in complete assay media and competitor peptides were added. The complete assay media contained 150 mM NaCl (Sigma +S5150 or equivalent), 20 mM HEPES pH 7.4 (Boston Bioproducts, Ashland, Mass.; #BB-2076), 7.5 mM CHAPS (Thermo #28300 or equivalent), and 1 mM DTT. Protein and peptide were incubated at room temperature for 1 hour before the addition of anti-Flag-K and anti-6×HIS-D2 (CisBio, Bedford Mass.) HTRF reconstitution buffer (50 mM Phosphate pH 7, 0.8 Potassium Flouride, BSA 0.2%)¹ to a final concentration of 0.5 μM and 4 nM respectively. The reaction continued for an additional two hours at room temperature. The reaction was read on a TECAN F500 plate reader with settings recommended by CisBio. The ratio of donor to acceptor fluorescence was calculated. The resulting data was analyzed with Graphpad Prism 5.0. IC50 values were calculated for both proteins using the One Site Fit-LogIC50 equation and presented in the column “IC₅₀ (nM) (HIF1α_p300 Displacement+CHAPS)” of Table 6. ¹ Cisbio USA, Bedford, Mass.; 61HISDLB (lot 007A), 61FG2KLB (024A), HTRF Buffer (62RB3RDF)

T2 sequence (Q09472 323-423 limits assumed): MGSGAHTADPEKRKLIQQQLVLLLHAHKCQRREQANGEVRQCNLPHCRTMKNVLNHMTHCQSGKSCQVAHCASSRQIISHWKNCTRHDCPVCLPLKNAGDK
T1 sequence (Q09472 302-423): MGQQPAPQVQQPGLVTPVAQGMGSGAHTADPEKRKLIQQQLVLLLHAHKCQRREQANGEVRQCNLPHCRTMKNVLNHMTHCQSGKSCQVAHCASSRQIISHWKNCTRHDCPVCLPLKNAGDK

CCCC[C@H](NC(=O)[C@H](CC(C)C)NC(=O)[C@@H](NC(=O)[C@H](CCC(=O)O)NC(=O)[C@H](CCC(=O)O)NC(=O)[C@H](CC(=O)O)NC(=O)[C@@H](NC(=O)[C@H](Cc1ccccc1)NC(C)=O)[C@@H](C)CC)C(C)C)C(=O)N[C@@]1(C)CCCC=CCCC[C@@](C)(C(=O)N[C@@H](CCCC)C(=O)N[C@@H](C)C(=O)N[C@@H](CC(C)C)C(=O)N[C@@H](CC(=O)O)C(=O)N[C@@H](CCCNC(=N)N)C(=O)N[C@H](C(N)=O)[C@@H](C)CC)NC(=O)[C@H]([C@@H](C)CC)NC(=O)[C@H](C(C)C)NC(=O)[C@H](CC(C)C)NC1=O [SP-6] (Ac-FIDEEVL[Nle][S5]LVI[S5][Nle]ALDRI-NH2; staple 9-13)
inhibition at 2 µM ([1]; 2 μM): 50%
inhibition at 10 µM ([1]; 10 μM): 99%

B1: SP-102 (peptide)
peptide: Ac-FIDEEVLM[S5]LVI[S5]MA-NH2
modifications: staple 9-13
SMILES: CC[C@H](C)[C@H](NC(=O)[C@H](Cc1ccccc1)NC(C)=O)C(=O)N[C@@H](CC(=O)O)C(=O)N[C@@H](CCC(=O)O)C(=O)N[C@@H](CCC(=O)O)C(=O)N[C@H](C(=O)N[C@@H](CC(C)C)C(=O)N[C@@H](CCSC)C(=O)N[C@@]1(C)CCCC=CCCC[C@@](C)(C(=O)N[C@@H](CCSC)C(=O)N[C@@H](C)C(N)=O)NC(=O)[C@H]([C@@H](C)CC)NC(=O)[C@H](C(C)C)NC(=O)[C@H](CC(C)C)NC1=O)C(C)C
IC50 [2]: > 700 nM

B2: SP-100 (peptide)
peptide: Ac-FIDEEVLM[S5]LVI[S5]MALDRIKE-NH2
modifications: staple 9-13
SMILES: CC[C@H](C)[C@H](NC(=O)[C@H](CCCNC(=N)N)NC(=O)[C@H](CC(=O)O)NC(=O)[C@H](CC(C)C)NC(=O)[C@H](C)NC(=O)[C@H](CCSC)NC(=O)[C@]1(C)CCCC=CCCC[C@](C)(NC(=O)[C@H](CCSC)NC(=O)[C@H](CC(C)C)NC(=O)[C@@H](NC(=O)[C@H](CCC(=O)O)NC(=O)[C@H](CCC(=O)O)NC(=O)[C@H](CC(=O)O)NC(=O)[C@@H](NC(=O)[C@H](Cc2ccccc2)NC(C)=O)[C@@H](C)CC)C(C)C)C(=O)N[C@@H](CC(C)C)C(=O)N[C@@H](C(C)C)C(=O)N[C@@H]([C@@H](C)CC)C(=O)N1)C(=O)N[C@@H](CCCCN)C(=O)N[C@@H](CCC(=O)O)C(N)=O
IC50 [2]: > 700 nM

B3: SP-89 (peptide)
peptide: Ac-EVLM[S5]LVI[S5]MGLDRIKELPELWL-NH2
modifications: staple 5-9
SMILES: CC[C@H](C)[C@H](NC(=O)[C@H](CCCNC(=N)N)NC(=O)[C@H](CC(=O)O)NC(=O)[C@H](CC(C)C)NC(=O)CNC(=O)[C@H](CCSC)NC(=O)[C@]1(C)CCCC=CCCC[C@](C)(NC(=O)[C@H](CCSC)NC(=O)[C@H](CC(C)C)NC(=O)[C@@H](NC(=O)[C@H](CCC(=O)O)NC(C)=O)C(C)C)C(=O)N[C@@H](CC(C)C)C(=O)N[C@@H](C(C)C)C(=O)N[C@@H]([C@@H](C)CC)C(=O)N1)C(=O)N[C@@H](CCCCN)C(=O)N[C@@H](CCC(=O)O)C(=O)N[C@@H](CC(C)C)C(=O)N1CCC[C@H]1C(=O)N[C@@H](CCC(=O)O)C(=O)N[C@@H](CC(C)C)C(=O)N[C@@H](Cc1c[nH]c2ccccc12)C(=O)N[C@@H](CC(C)C)C(N)=O
IC50 [3]: ≤ 200 nM

B4: SP-119 (peptide)
peptide: Ac-FIDE[S5]VLM[S5]LVIE[Nle]ALDRI-NH2
modifications: staple 5-9
SMILES: CCCC[C@H](NC(=O)[C@H](CCC(=O)O)NC(=O)[C@@H](NC(=O)[C@@H](NC(=O)[C@H](CC(C)C)NC(=O)[C@]1(C)CCCC=CCCC[C@](C)(NC(=O)[C@H](CCC(=O)O)NC(=O)[C@H](CC(=O)O)NC(=O)[C@@H](NC(=O)[C@H](Cc2ccccc2)NC(C)=O)[C@@H](C)CC)C(=O)N[C@@H](C(C)C)C(=O)N[C@@H](CC(C)C)C(=O)N[C@@H](CCSC)C(=O)N1)C(C)C)[C@@H](C)CC)C(=O)N[C@@H](C)C(=O)N[C@@H](CC(C)C)C(=O)N[C@@H](CC(=O)O)C(=O)N[C@@H](CCCNC(=N)N)C(=O)N[C@H](C(N)=O)[C@@H](C)CC
IC50 [3]: ≤ 200 nM

B5: SP-350 (peptide)
peptide: Ac-LLQAE[R8]LLRALD[S5]VNIDEEVL[Nle][S5]LVI[S5][Nle]-NH2
modifications: staple 6-13, 23-27
SMILES: CCCC[C@H](NC(=O)[C@]1(C)CCCC=CCCC[C@](C)(NC(=O)[C@H](CCCC)NC(=O)[C@H](CC(C)C)NC(=O)[C@@H](NC(=O)[C@H](CCC(=O)O)NC(=O)[C@H](CCC(=O)O)NC(=O)[C@H](CC(=O)O)NC(=O)[C@@H](NC(=O)[C@H](CC(N)=O)NC(=O)[C@@H](NC(=O)[C@]2(C)CCCC=CCCCCCC[C@@](C)(NC(=O)[C@H](CCC(=O)O)NC(=O)[C@H](C)NC(=O)[C@H](CCC(N)=O)NC(=O)[C@H](CC(C)C)NC(=O)[C@H](CC(C)C)NC(C)=O)C(=O)N[C@@H](CC(C)C)C(=O)N[C@@H](CC(C)C)C(=O)N[C@@H](CCCNC(=N)N)C(=O)N[C@@H](C)C(=O)N[C@@H](CC(C)C)C(=O)N[C@@H](CC(=O)O)C(=O)N2)C(C)C)[C@@H](C)CC)C(C)C)C(=O)N[C@@H](CC(C)C)C(=O)N[C@@H](C(C)C)C(=O)N[C@@H]([C@@H](C)CC)C(=O)N1)C(N)=O
IC50 [3]: ≤ 200 nM

B6: SP-103 (peptide)
peptide: Ac-FIDEEVLM[S5]LVI[S5]MAA-NH2
modifications: staple 9-13
SMILES: CC[C@H](C)[C@H](NC(=O)[C@H](Cc1ccccc1)NC(C)=O)C(=O)N[C@@H](CC(=O)O)C(=O)N[C@@H](CCC(=O)O)C(=O)N[C@@H](CCC(=O)O)C(=O)N[C@H](C(=O)N[C@@H](CC(C)C)C(=O)N[C@@H](CCSC)C(=O)N[C@@]1(C)CCCC=CCCC[C@@](C)(C(=O)N[C@@H](CCSC)C(=O)N[C@@H](C)C(=O)N[C@@H](C)C(N)=O)NC(=O)[C@H]([C@@H](C)CC)NC(=O)[C@H](C(C)C)NC(=O)[C@H](CC(C)C)NC1=O)C(C)C
IC50 [2]: > 700 nM

B7: SP-282 (peptide)
peptide: Ac-FIDEQVLM[S5]LVI[S5]MALDRI-NH2
modifications: staple 9-13
SMILES: CC[C@H](C)[C@H](NC(=O)[C@H](CCCNC(=N)N)NC(=O)[C@H](CC(=O)O)NC(=O)[C@H](CC(C)C)NC(=O)[C@H](C)NC(=O)[C@H](CCSC)NC(=O)[C@]1(C)CCCC=CCCC[C@](C)(NC(=O)[C@H](CCSC)NC(=O)[C@H](CC(C)C)NC(=O)[C@@H](NC(=O)[C@H](CCC(N)=O)NC(=O)[C@H](CCC(=O)O)NC(=O)[C@H](CC(=O)O)NC(=O)[C@@H](NC(=O)[C@H](Cc2ccccc2)NC(C)=O)[C@@H](C)CC)C(C)C)C(=O)N[C@@H](CC(C)C)C(=O)N[C@@H](C(C)C)C(=O)N[C@@H]([C@@H](C)CC)C(=O)N1)C(N)=O
IC50 [3]: ≤ 200 nM
